From PMC9308819 (Nature Communications, 2022)
Residue numbers refer to the chain shown, from its start. Names and notes keep the numbering of the source.

T1: Rab34 (Homo sapiens, UniProt Q9BZG1, Q111L)
T1 construct: full-length Rab34 from E. coli, preparatively loaded with GppNHp
T1 sequence (Q9BZG1 1-237 Q111L): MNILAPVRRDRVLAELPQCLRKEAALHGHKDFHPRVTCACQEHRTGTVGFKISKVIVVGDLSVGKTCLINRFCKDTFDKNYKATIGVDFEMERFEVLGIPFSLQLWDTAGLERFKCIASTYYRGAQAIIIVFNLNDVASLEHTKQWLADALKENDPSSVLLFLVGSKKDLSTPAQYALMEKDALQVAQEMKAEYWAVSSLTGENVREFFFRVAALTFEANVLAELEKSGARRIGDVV

T2: Rep15, full length (natural N101D variant) (human, UniProt Q6BDI9 1-236, N101D)
T2 sequence: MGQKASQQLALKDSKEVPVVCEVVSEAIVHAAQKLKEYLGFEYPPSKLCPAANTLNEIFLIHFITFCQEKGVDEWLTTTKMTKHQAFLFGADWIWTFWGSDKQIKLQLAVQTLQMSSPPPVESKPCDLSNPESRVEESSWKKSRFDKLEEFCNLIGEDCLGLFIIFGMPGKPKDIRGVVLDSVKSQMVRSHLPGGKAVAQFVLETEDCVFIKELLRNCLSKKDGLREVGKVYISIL

T3: Rab34 Q111L 1-237 (dominant active), purified, GTP-loaded (human, UniProt Q9BZG1 1-237, Q111L)
T3 construct: Rab34, human, residues 1-237 with Q111L; also called Rab34_(Q111L_1-237aa)
T3 sequence (looked up): T1 sequence (Q9BZG1 1-237 Q111L)

T4: Rab34 Q111L F114Y, purified (human, UniProt Q9BZG1 1-237, Q111L | F114Y)
T4 sequence: T1 sequence (Q9BZG1 1-237 Q111L) with F114Y

B1: Rab3D, purified, GppNHp-loaded (natural protein, human, UniProt O95716 1-219, looked up)
chain: MASAGDTQAGPRDAADQNFDYMFKLLLIGNSSVGKTSFLFRYADDSFTPAFVSTVGIDFKVKTVYRHDKRIKLQIWDTAGQERYRTITTAYYRGAMGFLLMYDIANQESFAAVQDWATQIKTYSWDNAQVILVGNKCDLEDERVVPAEDGRRLADDLGFEFFEASAKENINVKQVFERLVDVICEKMNESLEPSSSSGSNGKGPAVGDAPAPQPSSCSC
notes: Rab3D, human; source: E. coli BL21 Codon-Plus (DE3)-RIL, purified (Ni Sepharose, TEV cleavage, gel filtration)
B2: Rab27A F81Y, purified (natural protein, human, UniProt P51159 1-221, looked up)
chain: MSDGDYDYLIKFLALGDSGVGKTSVLYQYTDGKFNSKFITTVGIDFREKRVVYRASGPDGATGRGQRIHLQLWDTAGQERYRSLTTAFFRDAMGFLLLFDLTNEQSFLNVRNWISQLQMHAYCENPDIVLCGNKSDLEDQRVVKEEEAIALAEKYGIPYFETSAANGTNISQAIEMLLDLIMKRMERCVDKSWIPEGVVRSNGHASTDQLSEEKEKGACGC
notes: Rab27A, human, with F81Y; also called F81Y Rab27A; source: E. coli, purified
B3: Rab27A, purified (natural protein)
chain: B2 chain with Y81F
B4: Rab3A Y84F, purified (natural protein)
chain: MASATDSRYGQKESSDQNFDYMFKILIIGNSSVGKTSFLFRYADDSFTPAFVSTVGIDFKVKTIYRNDKRIKLQIWDTAGQERFRTITTAYYRGAMGFILMYDITNEESFNAVQDWSTQIKTYSWDNAQVLLVGNKCDMEDERVVSSERGRQLADHLGFEFFEASAKDNINVKQTFERLVDVICEKMSESLDTADPAVTGAKQGPQLSDQQVPPHQDCAC
B5: Rab3A V61N, purified (natural protein, human, UniProt P20336 1-220, looked up)
chain: B4 chain with V61N, F84Y
notes: Rab3A, human, with V61N; Tag as told for the 6His-tagged Rab3 paralogs in general; source: E. coli BL21 Codon-Plus (DE3)-RIL, purified
B6: Rab15, purified, nucleotide-loaded (natural protein, human, UniProt P59190 1-212, looked up)
chain: MAKQYDVLFRLLLIGDSGVGKTCLLCRFTDNEFHSSHISTIGVDFKMKTIEVDGIKVRIQIWDTAGQERYQTITKQYYRRAQGIFLVYDISSERSYQHIMKWVSDVDEYAPEGVQKILIGNKADEEQKRQVGREQGQQLAKEYGMDFYETSACTNLNIKESFTRLTELVLQAHRKELEGLRMRASNELALAELEEEEGKPEGPANSSKTCWC
notes: Rab15, human; Loaded with GppNHp (aSEC, ITC) or mant-GppNHp / mant-dGppNHp (stopped flow); also called Rab15_(GppNHp); Rab15_(mant-GppNHp); source: E. coli BL21 Codon-Plus (DE3)-RIL, purified (Ni Sepharose, TEV cleavage, gel filtration)
B7: Rep15, full length (natural N101D variant) (natural protein, human, UniProt Q6BDI9 1-236, looked up)
chain: T2 sequence
notes: also called full-length Rep15; Rab15 effector protein
B8: Rab3B, purified, GppNHp-loaded (natural protein, human)
chain: MASVTDGKTGVKDASDQNFDYMFKLLIIGNSSVGKTSFLFRYADDTFTPAFVSTVGIDFKVKTVYRHEKRVKLQIWDTAGQERYRTITTAYYRGAMGFILMYDITNEESFNAVQDWATQIKTYSWDNAQVILVGNKCDMEEERVVPTEKGQLLAEQLGFDFFEASAKENISVRQAFERLVDAICDKMSDSLDTDPSMLGSSKNTRLSDTPPLLQQNCSC
notes: Rab3B, human; also called Rab3B_(GppNHp); source: E. coli BL21 Codon-Plus (DE3)-RIL, purified (Ni Sepharose, TEV cleavage, gel filtration)

Key:
[1] = target: T1, Rab34; experiment: nucleotide loading, C18 reversed-phase HPLC of bound nucleotide; assay type: binding
[2] = target: T2, Rep15, full length (natural N101D …); experiment: ITC
[3] = target: B7; experiment: SEC; analytical SEC; 110 µM Rep15 and 121 µM Rab mixed; Superdex 75 10/300 GL; 20 mM Hepes 8.0, 50 mM NaCl, 1 mM MgCl2, 2 mM DTE; room temperature; conditions: both partners purified
[4] = target: B7; experiment: ITC; 500/600 µM GppNHp/GTP Rab titrated into 50/60 µM Rep15; 20 mM Hepes 8.0, 50 mM NaCl, 1 mM MgCl2, 1 mM TCEP; one-site-binding model; conditions: both partners purified
[5] = target: T2, Rep15, full length (natural N101D …); experiment: ITC; remark: listed apart in the source
[6] = target: Rep15, full length (natural N101D variant) (human) (UniProt Q6BDI9); experiment: ITC; 500/600 µM GppNHp/GTP Rab titrated into 50/60 µM Rep15; 20 mM Hepes 8.0, 50 mM NaCl, 1 mM MgCl2, 1 mM TCEP; one-site-binding model
[7] = target: B7; experiment: fluorescence polarisation; stopped flow, association; mant-GppNHp Rab15 mixed with increasing Rep15 (2.5–25 µM); 25 °C; 20 mM Hepes 8.0, 50 mM NaCl, 2 mM MgCl2, 2 mM DTE; kobs against Rep15 concentration, koff from the intercept, KD as koff/kon; conditions: both partners purified
[8] = target: T3, Rab34 Q111L 1-237 (dominant active), …; experiment: ITC; 500/600 µM GppNHp/GTP Rab titrated into 50/60 µM Rep15; 20 mM Hepes 8.0, 50 mM NaCl, 1 mM MgCl2, 1 mM TCEP; one-site-binding model; conditions: both partners purified
[9] = target: T4, Rab34 Q111L F114Y, purified; experiment: ITC

## Nc1nc2c(ncn2[C@@H]2O[C@H](COP(=O)(O)OP(=O)(O)NP(=O)(O)O)[C@@H](O)[C@H]2O)c(=O)[nH]1 [GppNHp, Guanosine-5′-[β-γ-Imido]-triphosphate]
[1]; preparative nucleotide exchange, mixture with GppNH2
  nucleotide loading, C18 reversed-phase HPLC of bound nucleotide: apart from GppNHp, Rab34 is also bound to GppNH2 (hydrolysis product of GppNHp)

## Nc1nc2c(ncn2[C@@H]2O[C@H](COP(=O)(O)OP(N)(=O)O)[C@@H](O)[C@H]2O)c(=O)[nH]1 [GppNH2]
[1]; formed during loading with GppNHp, mixture with GppNHp
  nucleotide loading, C18 reversed-phase HPLC of bound nucleotide: apart from GppNHp, Rab34 is also bound to GppNH2 (hydrolysis product of GppNHp)

## B1
[2]
  Kd: 0.79 µM
[3]
  binding result: binds

## B2
[4]
  fold increase in affinity against wild-type Rab27A: > 8 fold
[5]
  Kd: 10.8 µM

## B3
[5]
  Kd: 86.2 µM

## B4
[6]
  fold reduction in affinity against wild-type Rab3A: 23 fold
[5]
  Kd: 11.1 µM

## B5
[4]
  binding result: binds
[5]
  Kd: 0.39 µM

## B6
[4]
  Kd: 0.47 ± 0.12 µM
  stoichiometry N: 1
[7]
  Kd: 0.58 µM
  koff: 4.73 s⁻¹
  kon: 8.16e+06 M⁻¹ s⁻¹

## B7
[8]
  Kd: 0.064 ± 0.032 µM
[9]
  Kd: 0.0787 µM

## B8
[2]
  Kd: 2.16 µM
[3]
  binding result: binds
